Assay: First-order nonenzymatic deamidation of pentapeptides in Tris buffer
Type: physicochemical
Conditions: 0.15 M Tris HCl; for First-Order Deamidation Halftimes of GlyXxxGlnYyyGly: pH 7.4, 37.0 ° C., Gln pentapeptides, 52 values measured, rest derived from surface fitting; for First-Order Deamidation Halftimes of GlyXxxAsnYyyGly: pH 7.4, 37.0° C., Asn pentapeptides
Method in brief: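 Pentapeptides containing Asn or Gln in varied flanking sequences incubated at 37° C., pH 7.4, 0.15 M Tris buffer; first-order deamidation rates measured. Some Asn values estimated from remaining data; many Gln values derived from surface fitting rather than measured.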

Row | Substance | First-Order Deamidation Halftimes of GlyXxxGlnYyyGly [days] | First-Order Deamidation Halftimes of GlyXxxAsnYyyGly [days]
1 | GlyTrpGlnCysGly (GWQCG; printed: GlyTrpGlnCysGly) | 2300 | 
2 | GlyTrpGlnGluGly (GWQEG; printed: GlyTrpGlnGluGly) | 8500 | 
3 | GlyTrpGlnGlyGly (GWQGG; printed: GlyTrpGlnGlyGly) | 850 | 
4 | GlyTrpGlnHisGly (GWQHG; printed: GlyTrpGlnHisGly) | 7500 | 
5 | GlyTrpGlnIleGly (GWQIG; printed: GlyTrpGlnIleGly) | 8000 | 
6 | GlyTrpGlnLeuGly (GWQLG; printed: GlyTrpGlnLeuGly) | 7900 | 
7 | GlyTrpGlnLysGly (GWQKG; printed: GlyTrpGlnLysGly) | 7600 | 
8 | GlyTrpGlnMetGly (GWQMG; printed: GlyTrpGlnMetGly) | 5300 | 
9 | GlyTrpGlnPheGly (GWQFG; printed: GlyTrpGlnPheGly) | 8600 | 
10 | GlyTrpGlnProGly (GWQPG; printed: GlyTrpGlnProGly) | 11000 | 
11 | GlyTrpGlnSerGly (GWQSG; printed: GlyTrpGlnSerGly) | 6500 | 
12 | GlyTrpGlnThrGly (GWQTG; printed: GlyTrpGlnThrGly) | 5600 | 
13 | GlyTrpGlnTrpGly (GWQWG; printed: GlyTrpGlnTrpGly) | 19000 | 
14 | GlyTrpGlnTyrGly (GWQYG; printed: GlyTrpGlnTyrGly) | 14000 | 
15 | GlyTrpGlnValGly (GWQVG; printed: GlyTrpGlnValGly) | 8200 | 
16 | GlyTyrAsnAlaGly (GYNAG; printed: GlyTyrAsnAlaGly) |  | 24.3
17 | GlyTyrAsnAmCysGly |  | 33.3
18 | GlyTyrAsnArgGly (GYNRG; printed: GlyTyrAsnArgGly) |  | 56.9
19 | GlyTyrAsnAspGly (GYNDG; printed: GlyTyrAsnAspGly) |  | 28.4
20 | GlyTyrAsnCysGly (GYNCG; printed: GlyTyrAsnCysGly) |  | 48.6

Row | Substance | First-Order Deamidation Halftimes of GlyXxxGlnYyyGly [days] | First-Order Deamidation Halftimes of GlyXxxAsnYyyGly [days]
21 | GlyTyrAsnGluGly (GYNEG; printed: GlyTyrAsnGluGly) |  | 41.0
22 | GlyTyrAsnGlyGly (GYNGG; printed: GlyTyrAsnGlyGly) |  | 1.49
23 | GlyTyrAsnHisGly (GYNHG; printed: GlyTyrAsnHisGly) |  | 10.2
24 | GlyTyrAsnIleGly (GYNIG; printed: GlyTyrAsnIleGly) |  | 306
25 | GlyTyrAsnLeuGly (GYNLG; printed: GlyTyrAsnLeuGly) |  | 118
26 | GlyTyrAsnLysGly (GYNKG; printed: GlyTyrAsnLysGly) |  | 55.1
27 | GlyTyrAsnMetGly (GYNMG; printed: GlyTyrAsnMetGly) |  | 64.3
28 | GlyTyrAsnPheGly (GYNFG; printed: GlyTyrAsnPheGly) |  | 58.0
29 | GlyTyrAsnProGly (GYNPG; printed: GlyTyrAsnProGly) |  | 9830
30 | GlyTyrAsnSerGly (GYNSG; printed: GlyTyrAsnSerGly) |  | 11.9
31 | GlyTyrAsnThrGly (GYNTG; printed: GlyTyrAsnThrGly) |  | 38.1
32 | GlyTyrAsnTrpGly (GYNWG; printed: GlyTyrAsnTrpGly) |  | 120
33 | GlyTyrAsnTyrGly (GYNYG; printed: GlyTyrAsnTyrGly) |  | 70.6
34 | GlyTyrAsnValGly (GYNVG; printed: GlyTyrAsnValGly) |  | 241
35 | GlyTyrGlnAlaGly (GYQAG; printed: GlyTyrGlnAlaGly) | 7300 | 
36 | GlyTyrGlnArgGly (GYQRG; printed: GlyTyrGlnArgGly) | 8100 | 
37 | GlyTyrGlnAspGly (GYQDG; printed: GlyTyrGlnAspGly) | 8600 | 
38 | GlyTyrGlnCysGly (GYQCG; printed: GlyTyrGlnCysGly) | 2200 | 
39 | GlyTyrGlnGluGly (GYQEG; printed: GlyTyrGlnGluGly) | 8300 | 
40 | GlyTyrGlnGlyGly (GYQGG; printed: GlyTyrGlnGlyGly) | 850 | 

Row | Substance | First-Order Deamidation Halftimes of GlyXxxGlnYyyGly [days] | First-Order Deamidation Halftimes of GlyXxxAsnYyyGly [days]
41 | GlyTyrGlnHisGly (GYQHG; printed: GlyTyrGlnHisGly) | 7400 | 
42 | GlyTyrGlnIleGly (GYQIG; printed: GlyTyrGlnIleGly) | 7900 | 
43 | GlyTyrGlnLeuGly (GYQLG; printed: GlyTyrGlnLeuGly) | 7800 | 
44 | GlyTyrGlnLysGly (GYQKG; printed: GlyTyrGlnLysGly) | 7500 | 
45 | GlyTyrGlnMetGly (GYQMG; printed: GlyTyrGlnMetGly) | 5300 | 
46 | GlyTyrGlnPheGly (GYQFG; printed: GlyTyrGlnPheGly) | 8700 | 
47 | GlyTyrGlnProGly (GYQPG; printed: GlyTyrGlnProGly) | 11000 | 
48 | GlyTyrGlnSerGly (GYQSG; printed: GlyTyrGlnSerGly) | 6400 | 
49 | GlyTyrGlnThrGly (GYQTG; printed: GlyTyrGlnThrGly) | 5600 | 
50 | GlyTyrGlnTrpGly (GYQWG; printed: GlyTyrGlnTrpGly) | 18000 | 
51 | GlyTyrGlnTyrGly (GYQYG; printed: GlyTyrGlnTyrGly) | 14000 | 
52 | GlyTyrGlnValGly (GYQVG; printed: GlyTyrGlnValGly) | 8000 | 
53 | GlyValAsnAlaGly (GVNAG; printed: GlyValAsnAlaGly) |  | 27.5
54 | GlyValAsnAmCysGly |  | 34.7
55 | GlyValAsnArgGly (GVNRG; printed: GlyValAsnArgGly) |  | 67.4
56 | GlyValAsnAspGly (GVNDG; printed: GlyValAsnAspGly) |  | 33.5
57 | GlyValAsnCysGly (GVNCG; printed: GlyValAsnCysGly) |  | 63.2
58 | GlyValAsnGluGly (GVNEG; printed: GlyValAsnGluGly) |  | 64.8
59 | GlyValAsnGlyGly (GVNGG; printed: GlyValAsnGlyGly) |  | 1.23

Reference: patent US20050118674A1, “Engineering of Controlled Deamidation Rates in Peptides, Proteins, and Similar Structures” (priority 2003, published 2005)
